Positions count from the first letter of the chain named. In names and notes the source's numbering stands. Entries after “also recorded” stand apart in the source; their conditions may differ.
B1: S123V: variant of human CD117 with substitution S123V (protein)
chain: QPSVSPGEPSPPSIHPGKSDLIVRVGDEIRLLCTDPGFVKWTFEILDETNENKQNEWITEKAEATNTGKYTCTNKHGLSNSIYVFVRDPAKLFLVDRVLYGKEDNDTLVRCPLTDPEVTNYSLKGCQGKPLPKDLRFIPDPKAGIMIKSVKRAYHRLCLHCSVDQEGKSVLSEKFILKVRPAFKAVPVVSVSKASYLLREGEEFTVTCTIKDVSSSVYSTWKRENSQTKLQEKYNSWHHGDFNYERQATLTISSARVNDSGVFMCYANNTFGSANVTTTLEVVDKG
B2: K127L: variant of human CD117 with substitution K127L (protein)
chain: B1 chain with V98S, K102L
B3: Y259E: variant of human CD117 with substitution Y259E (protein)
chain: B1 chain with V98S, Y234E
B4: Y259P: variant of human CD117 with substitution Y259P (protein)
chain: B1 chain with V98S, Y234P
B5: Y259G (receptor)
extracellular domains 1, 2 and 3: QPSVSPGEPSPPSIHPGKSDLIVRVGDEIRLLCTDPGFVKWTFEILDETNENKQNEWITEKAEATNTGKYTCTNKHGLSNSIYVFVRDPAKLFLVDRSLYGKEDNDTLVRCPLTDPEVTNYSLKGCQGKPLPKDLRFIPDPKAGIMIKSVKRAYHRLCLHCSVDQEGKSVLSEKFILKVRPAFKAVPVVSVSKASYLLREGEEFTVTCTIKDVSSSVYSTWKRENSQTKLQEKGNSWHHGDFNYERQATLTISSARVNDSGVFMCYANNTFGSANVTTTLEVVD
notes: not in the list MOLECULES; also called human CD117 D1-2-3 variant Y259G
B6: Y259A: variant of human CD117 with substitution Y259A (protein)
chain: B1 chain with V98S, Y234A
B7: S261E: variant of human CD117 with substitution S261E (protein)
chain: B1 chain with V98S, S236E
B8: S261Q: variant of human CD117 with substitution S261Q (protein)
chain: B1 chain with V98S, S236Q

Each molecule was assayed against T1, SCF (Homo sapiens, UniProt P21583) (assay: Octet: binding of CD117 D1-2-3 variants to SCF). Conditions: CD117 D1-2-3 constructs.
T1 construct: purchased Acros Biosystems SCF-H82E1
Description: SCF binding is one function of CD117. SCF binding is important for the transmission of functional signals by CD117. Binding of the elected variants to SCF was measured on an Octet system RED96e or R8 at 25° C. with shaking at 1000 rpm using 1× Kinetic Buffer (Sartorius, PN: 18-1105). […] Domain 1, 2, 3 comprise the binding site for SCF. Domains 4 and 5 were used as a negative, non-binding control.
CD117 D1-2-3 wt and variants thereof are titrated with different concentrations from 1000 to 5 nM. Association was monitored for 300 s and dissociation for 600 s. Binding to human CD117 domain 4 and 5 (CD117 D4-5) was performed under the same conditions as non-binding control. Reference subtraction was performed against buffer only wells. Biosensors were not regenerated and a new set of SA biosensors was used for each analyte. Data were analyzed using the Octet Data Analysis software HT 12.0. Steady state data analysis was performed due to the fast on/off nature of the interaction.

T1 sequence (P21583 26-273): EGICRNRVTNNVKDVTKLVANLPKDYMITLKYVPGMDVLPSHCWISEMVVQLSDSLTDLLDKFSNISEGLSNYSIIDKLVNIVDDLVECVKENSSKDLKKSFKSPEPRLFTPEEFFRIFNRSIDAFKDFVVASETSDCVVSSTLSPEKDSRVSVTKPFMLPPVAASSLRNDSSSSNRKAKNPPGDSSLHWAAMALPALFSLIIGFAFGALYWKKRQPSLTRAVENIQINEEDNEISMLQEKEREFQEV

Row | Molecule | binding to SCF
1 | B1 | binding to SCF, albeit to a slightly lower degree
2 | B2 | binding to SCF, albeit to a slightly lower degree
3 | B3 | binding to SCF, albeit to a slightly lower degree

Same assay, conditions: CD117 D1-2-3 constructs; steady state

Row | Molecule | KD increase of SCF binding compared to wild type CD117
4 | B1 | less than three-fold; also recorded: less than four-fold
5 | B4 | less than three-fold; also recorded: less than four-fold
6 | B3 | less than three-fold; also recorded: less than four-fold

Each molecule was assayed on CD117 (assay: Gene editing of CD117 in TF-1 cells, loss of SR-1 binding by FACS). Conditions: FACS 7 days after electroporation with Cas9, crRNA/tracrRNA or sgRNA and HDR template.
Type: cell-based, human
Description: Gene editing of CD117 was performed in TF-1 cells using HDR. 12 different crRNAs were tested, six of them targeting amino acid residue E73 (Table 3), and six of them targeting amino acid residues 120-123 (Table 3).
Binding of antibody SR-1 to TF-1 cells was measured by FACS 7 days after electroporation with Cas9 protein, crRNA/tracrRNA or sgRNA and HDR template (Table 4).

Row | Molecule | KnockOut Efficiency (loss of binding of SR-1 compared to wild type cells) [%]
7 | KIT_120_123_4: crRNA CTTGTTGACCGCTCCTTGTA, SEQ ID NO: 12, targets residues 120-123 of CD117 (chemistry not given here) | 60.0
8 | KIT_120_123_6: crRNA GCGGTCAACAAGGAAAAGCT, SEQ ID NO: 14, targets residues 120-123 of CD117 (chemistry not given here) | 60.6
9 | KIT_120_123_5: crRNA CATACAAGGAGCGGTCAACA, SEQ ID NO: 13, targets residues 120-123 of CD117 (chemistry not given here) | 53.8
10 | KIT_E73_4: crRNA TATTCTCATTCGTTTCATCC, SEQ ID NO: 6, targets E73 of CD117 (chemistry not given here) | 60.1
11 | KIT_120_123_1: crRNA GTTGTCTTCTTTCCCATACA, SEQ ID NO: 9, targets residues 120-123 of CD117 (chemistry not given here) | 64.1
12 | KIT_E73_3: crRNA CAAATGGACTTTTGAGATCC, SEQ ID NO: 5, targets E73 of CD117 (chemistry not given here) | 37.2
13 | KIT_E73_2: crRNA AAAGTCCATTTGACAAAGCC, SEQ ID NO: 4, targets E73 of CD117 (chemistry not given here) | 25.7
14 | KIT_E73_5: crRNA ATGAGAATAAGCAGAATGAA, SEQ ID NO: 7, targets E73 of CD117 (chemistry not given here) | 68.5
15 | KIT_E73_1: crRNA CTGATCCGGGCTTTGTCAAA, SEQ ID NO: 3, targets E73 of CD117 (chemistry not given here) | 10.8
16 | KIT_E73_6: crRNA TAAGCAGAATGAATGGATCA, SEQ ID NO: 8, targets E73 of CD117 (chemistry not given here) | 60.5
17 | KIT_120_123_2: crRNA CTTCTTTCCCATACAAGGAG, SEQ ID NO: 10, targets residues 120-123 of CD117 (chemistry not given here) | 63.1
18 | KIT_120_123_3: crRNA TTGTTGACCGCTCCTTGTAT, SEQ ID NO: 11, targets residues 120-123 of CD117 (chemistry not given here) | 71.2

Each molecule was assayed against T2, Biotinylated Avitag-hSCF (human, UniProt P21583 26-190, limits assumed, biotinylated Avitag) (assay: BLI (Octet), steady state: biotinylated SCF on streptavidin biosensor, CD117 D1-2-3 variant as analyte; KD relative to WT). Conditions: not given.
T2 construct: Bought reagent; also called hSCF (Acros Biosystems SCF-H82E1)
T2 sequence (P21583 26-190 limits assumed): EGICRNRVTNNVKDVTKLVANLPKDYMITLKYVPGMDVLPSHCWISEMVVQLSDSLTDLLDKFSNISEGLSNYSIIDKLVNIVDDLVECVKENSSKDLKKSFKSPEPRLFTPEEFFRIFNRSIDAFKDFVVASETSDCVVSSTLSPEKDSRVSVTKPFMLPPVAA

Row | binding result | Molecule
19 | binds | B5

Each molecule was assayed on Refmab #3 (assay: Octet: binding of CD117 variants to Refmab #3). Conditions: qualitative Octet analysis.
Description: (§1) A more sophisticated analysis of binding to the elected variants was performed with antibody Refmab #1. Binding of Refmab #1 to wt and variants (analyte) was measured in an Octet system RED96e or R8 at 25° C. with shaking at 1,000 rpm using 1× kinetic buffer (Sartorius, PN: 18-1105). First, the elected variants were screened for their ability to bind Refmab #1 using three different concentrations of analytes. Antibody Refmab #1 was captured by Anti-Human Fc capture biosensor (AHC) (Sartorius, PN: 18-5060) for 300 s at 0.5 to 1 μg/mL. As an analyte, human CD117 wt and variants, containing only domains 1, 2 and 3 (CD117 D1-2-3), was titrated at 500 nM, 50 nM and 5 nM. Association and dissociation of the analyte to Refmab #1 was monitored for 300 s and 900 s, respectively. Reference subtraction was performed against buffer only wells. AHC tips were regenerated using 10 mM Gly-HCl pH 1.7. Data were analyzed using the Octet Data Analysis software HT 12.0. Data were fitted (when possible) to a 1:1 binding model. Kinetic rates ka and […] globally fitted. Binding level of the elected variants were compared to wild type and are shown as percent in FIG. 7. For this qualitative analysis, the binding level of the top analyte concentration at end of the association step was used.
A similar experiment to that in Example 7 was performed, but utilizing Refmab's #2 and #3.

Refmab #3, sequence (as listed by the source): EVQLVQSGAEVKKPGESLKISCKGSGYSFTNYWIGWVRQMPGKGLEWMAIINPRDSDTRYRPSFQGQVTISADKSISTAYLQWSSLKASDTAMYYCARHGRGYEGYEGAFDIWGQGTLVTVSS
Refmab #3, sequence (as listed by the source): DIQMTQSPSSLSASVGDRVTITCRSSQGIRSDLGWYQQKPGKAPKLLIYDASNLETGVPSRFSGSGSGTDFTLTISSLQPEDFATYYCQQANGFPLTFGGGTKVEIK

Row | binding to Refmab #3 compared to wild type CD117 | Molecule
20 | strong decrease in binding | B5
21 | strong decrease in binding | B6
22 | complete loss of binding | B7
23 | strong decrease in binding | B4
24 | complete loss of binding | B8

What follows are molecules tested on antibody Refmab #1 (assay: Octet screen: binding of CD117 D1-2-3 variants to captured Refmab #1). Conditions: nm shift at end of association, top analyte concentration (500 nM).
Description: as §1

antibody Refmab #1, sequence (as listed by the source): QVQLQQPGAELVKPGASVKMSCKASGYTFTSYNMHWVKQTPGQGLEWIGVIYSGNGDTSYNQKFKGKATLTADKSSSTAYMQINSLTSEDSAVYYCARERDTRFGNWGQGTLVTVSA
antibody Refmab #1, sequence (as listed by the source): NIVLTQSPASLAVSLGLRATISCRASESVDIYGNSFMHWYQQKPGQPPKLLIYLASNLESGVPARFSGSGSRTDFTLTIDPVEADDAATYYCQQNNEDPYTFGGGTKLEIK

Row | binding to Refmab #1 compared to wild type | Molecule
25 | strong decrease in binding | B1
